Substitutions are numbered along the chain they refer to.
B1: Clone 42 (VNAR)
VNAR: ARVDQTPQTITKETGESLTINCVLRDSNCELSSTYWYRKKSGSTNEARISKGGRYVETVNSGSKSFSLRINDLTVEDSGTYRCKVRKALVQSQSCCQPLHRDVYGDGTAVTVNA
notes: VNAR on phage
B2: Clone 48 (VNAR)
VNAR: ARVDQTPRSVTKETGESLTINCVLRDASYELGSTCWYRKKSGSTNEESISKGGRYVETVNSGSKSFSLRINDLTVEDGGTYRCGASFMLSHPGGCDSCVIMCQTRRQGVAACGDGTAVTVNA
notes: VNAR on phage
B3: Clone 41 (VNAR)
VNAR: ARVDQTPQTITKETGESLTINCVLRDSNCALSNLYWYRKKSGSTNEESISLGGRYVETVNSGSKSFSLRINDLTVEDSGTYRCKVTCEVALQPYYGQEPTQDVYGGGTVVTVNA
notes: VNAR on phage
B4: Clone 52 (VNAR)
VNAR: PRVDQTPQTITKETGESLTINCVLRDSNCALSSTYWYRKKSGSTNEENISKGGRYVETVNSGSKSFSLRINDLTVEDSGTYRCNVAFFACQYKNDVYGGGTVVTVNA
notes: VNAR on phage
B5: Clone 54 (VNAR)
VNAR: ARVDQTPQTITKETGESLTINCVLRDSNCALPITYWYRKKSGSTNEESISKGGRYVETVNSGSKSFSLRINDLTVKDSGTYRCNVGAQYCDREISDVYGDGTAVTVNA
notes: VNAR on phage
B6: Clone 58 (VNAR)
VNAR: ARVDQTPQTITKETGESLTINCVLRDSNCELSSTYWYRKKSGSTNEARISKGGRYVETVNSGSKSFSLRINDLTVEDSGTYRCNVGFSQSWGNSVGIVDVYGGGTAVTVNE
notes: VNAR on phage
B7: Clone 33 (VNAR)
VNAR: PRVDQTPQTITKETGESLTINCVLRDSNCALSNLYWYRKKSGSTNEESISKGGRYVETVNSGSKSFSLRINDLTVEDSGTYRCNVLVGMLSGCGFQRGDVYGGGTAVTVNA
notes: VNAR on phage
B8: Clone 51 (VNAR)
VNAR: ARVDQTPQTITKETGESLTINCVLRDSNCALSSTLWYRTKSGSRNEESISKGGRYVETVNSGSKSFSLRINDLVVEDSGTYRCKVSHSGLCQYCHDLEDDVYGDGTAVTVNA
notes: VNAR on phage
B9: Clone 44 (VNAR)
VNAR: ARVDQTPRSVTKETGESLTINCVLRDASYELGSTCWYRKKSGSTNEESISKGGRYVETVNSGSKSFSLRINDLTVEDGGTYRCGAGSVQRSTSQCDRLWSRCWRTRFKIAACGDGTAVTVNA
notes: VNAR on phage
B10: Clone 47 (VNAR)
VNAR: PRVDQTPQTITKETGESLTINCVLRDSNCALPSTYWYRKKSGSTNEENISKGGRYVETVNSGSKSFSLKINDLTVEDSGTYRCNVIINPLSCYYLQLQDVYGGGTAVTVNA
notes: VNAR on phage
B11: Clone 49 (VNAR)
VNAR: ARVDQTPQTITKETGESLTINCVLRDSNCALPSTYWYRKKSGSTNEESISKGGRYVETVNSGSKSFSLKINDLTVEDSGTYRCNVQGRAAYSGLVCDVYGGGTAVTVNA
notes: VNAR on phage
B12: Clone 57 (VNAR)
VNAR: B11 VNAR with K69R, Q86R, R88F, A89K, A90Q, Y91C, S92Y, G93D, V95R, C96L
notes: VNAR on phage
B13: Clone 56 (VNAR)
VNAR: ARVDQTPQTITKETGESLTINCVLRDSNCALSSTYWYRKKSDSTNEESISKGGRYVETVNSGSKSFSLRINDLVVEDSGTYRCNVQSKEKLHCQVVVDVYGGGTAVTVNA
notes: VNAR on phage
B14: Clone 59 (VNAR)
VNAR: ARVDQTPQTITKETGESLTINCVLRDSNCALPSTYWYRKKSGSTNEESISKGGRYVETVNSGSKSFSLRINDLTVEDSGTYRCNVSLQFCCLSFDVYGGGTAVTVNA
notes: VNAR on phage
B15: Clone 50 (VNAR)
VNAR: B14 VNAR with G42D, E76K, S86L, L87I, F89C, C91S, L92P, S93T, F94C
notes: VNAR on phage
B16: Clone 38 (VNAR)
VNAR: B14 VNAR with R69K, S86R, L87I, Q88I, F89Q, L92V, F94Q, A102V
notes: VNAR on phage
B17: Clone 55 (VNAR)
VNAR: PRVDQTPQTITKETGESLTINCVLRDSNCALSSTLWYRTKSGSRNEESISKGGRYVETVNSGSKSFSLRINDLTVEDSGTYRCNVWCLTLGCSGKWDVYGGGTAVTVNA
notes: VNAR on phage
B18: Clone 53 (VNAR)
VNAR: ARVDQTPQTITKETGESLTINCVLRDSNCALSSTYWYRKKSDSTNEESISKGGRYVETVNSGSKSFSLRINDLTVKDSGTYRCNVYLQDRPVCSPFNYDVYGGGTAVTVNA
notes: VNAR on phage
B19: Clone 45 (VNAR)
VNAR: AVDQTPQTITKETGESLTINCVLRDSNCALSNLYWYRKKSDSTNEESISKGGRYVETVNSGSKSFSLRINDLTVEDSGTYRCNVCWWFSSRCTTCDVYGDGTAVTVNA
notes: VNAR on phage
B20: Clone 46 (VNAR)
VNAR: ARVDQTPRVTKETGESLTINCVLRDASYELGSTCWYRKKSGSTNEESISKGGRYVETVNSGSKSFSLRINDLTVEDGGTYRCGASGSQGQVYRCDRLTLCCLQMQWQVAACGDGTAVTVNA
notes: VNAR on phage
B21: Clone 32 (VNAR)
VNAR: ARVDQTPQTITKETGESLTINCVLRDSNCALSSTYWYRKKSGSTNEENISKGGRYVETVNSGSKSFSLRINDLTVEDSGTYRCNVQDMLTPNDGQLWDVYGDGTAVTVNA
notes: VNAR on phage
B22: Clone 8.143 (VNAR)
VNAR: ARVDQTPQTITKETGESLTINCVLRDSNCALPSTYWYRKKSGSTNEESISKGGRYVETVNSGSKSFSLRINDLTVEDSGTYRCKVIAQLHCMLRGCNYRKHDVYGDGTAVTVNA
notes: VNAR on phage; Clone 8 framework
B23: Clone 8.145 (VNAR)
VNAR: B22 VNAR with H90S, C91S, M92I, R94Q, G95P, N97Y
notes: as for B22
B24: Clone 8.147 (VNAR)
VNAR: B22 VNAR with H90S, C91S, M92I, N97E, Y98G, R99D
notes: as for B22
B25: Clone 8.146 (VNAR)
VNAR: B22 VNAR with H90S, C91S, M92I, N97E, Y98A
notes: as for B22
B26: Clone 8.148 (VNAR)
VNAR: B22 VNAR with H90S, C91S, M92I, R99E, K100H
notes: as for B22
B27: Clone 8.144 (VNAR)
VNAR: B22 VNAR with H90S, C91S, M92G, L93H
notes: as for B22

Target: T1, recombinant mouse TfR-1 (mouse, UniProt Q62351 89-763)
T1 construct: Bought recombinant protein; also called mTfR1
Assay: phage ELISA
Protocol: After the third round of selection, instead of pooling bacterial colonies, individual phagemid clones were grown in 1 ml of 2TY medium containing glucose and ampicillin in 96-well blocks and used to rescue the phages. After an overnight culturing, bacteria were spun down and an aliquot of the phage supernatant was sent for Sanger sequencing (Genewiz); VNAR CDR3 sequences were identified using BioEdit (a sequence alignment editor). Another aliquot was blocked with 2.5% milk for phage ELISAs. High-binding ELISA plates (Greiner) were coated with 1 μg/ml of recombinant human or mouse TfR-1. The plates were then blocked with 2.5% milk in PBST. Blocked phages were added to the blocked plates and the VNAR-phage clones binding to the antigens were detected with HRP-labelled anti-M13 coat protein antibodies (Sino Biological), and chromogenic TMB substrate (KLM)
T1 sequence (Q62351 89-763 limits assumed): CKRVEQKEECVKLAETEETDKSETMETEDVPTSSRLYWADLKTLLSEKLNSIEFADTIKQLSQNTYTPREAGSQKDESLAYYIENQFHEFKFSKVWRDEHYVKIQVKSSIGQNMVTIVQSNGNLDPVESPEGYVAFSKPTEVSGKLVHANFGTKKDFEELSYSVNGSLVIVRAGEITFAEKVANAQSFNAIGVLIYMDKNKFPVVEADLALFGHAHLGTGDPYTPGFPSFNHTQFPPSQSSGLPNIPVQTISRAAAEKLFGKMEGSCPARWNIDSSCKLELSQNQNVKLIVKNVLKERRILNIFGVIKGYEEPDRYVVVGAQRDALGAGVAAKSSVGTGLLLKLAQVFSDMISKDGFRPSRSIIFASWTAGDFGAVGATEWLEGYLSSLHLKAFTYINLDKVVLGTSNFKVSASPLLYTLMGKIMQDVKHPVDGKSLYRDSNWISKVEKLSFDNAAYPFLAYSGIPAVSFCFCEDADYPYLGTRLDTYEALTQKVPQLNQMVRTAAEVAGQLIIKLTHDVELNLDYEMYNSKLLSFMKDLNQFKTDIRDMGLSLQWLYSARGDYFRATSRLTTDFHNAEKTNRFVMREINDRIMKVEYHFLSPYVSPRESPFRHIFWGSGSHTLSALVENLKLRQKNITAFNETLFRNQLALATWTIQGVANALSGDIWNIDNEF

Does B1 bind?
Result: no binding

Does B2 bind?
Result: no binding

Does B3 bind?
Result: no binding

Does B4 bind?
Result: no binding

Does B5 bind?
Result: no binding

Does B6 bind?
Result: no binding

Does B7 bind?
Result: no binding

Does B8 bind?
Result: no binding

Does B9 bind?
Result: no binding

Does B10 bind?
Result: no binding

Does B11 bind?
Result: no binding

Does B12 bind?
Result: no binding

Does B13 bind?
Result: no binding

Does B14 bind?
Result: no binding

Does B15 bind?
Result: no binding

Does B16 bind?
Result: no binding

Does B17 bind?
Result: no binding

Does B18 bind?
Result: no binding

Does B19 bind?
Result: no binding

Does B20 bind?
Result: no binding

Does B21 bind?
Result: no binding

Target: T2, recombinant mouse TfR-1 (mouse, UniProt Q62351 89-763)
T2 construct: Recombinant protein coated at 1 ug/ml in the phage ELISA; also called mTfR1; mouse transferrin receptor-1
Assay: phage ELISA
T2 sequence (Q62351 89-763 limits assumed): as above

How did the A450 turn out when B22 was run?
The A450 was 0.045 A450.

Which A450 does the source give for B23 here?
The A450 was 0.045 A450.

With B24 as the binder, how does the A450 read?
The A450 was 0.045 A450.

How did the A450 turn out when B25 was run?
The A450 was 0.045 A450.

With B26 as the binder, how does the A450 read?
Its A450 is 0.045 A450.

Which A450 does the source give for B27 here?
The A450 was 0.045 A450.

Target: T3, recombinant human TfR-1 (human, UniProt P02786 89-760)
T3 construct: Recombinant protein coated at 1 ug/ml in the phage ELISA; also called hTfR1; human transferrin receptor-1
T3 sequence (P02786 89-760 limits assumed): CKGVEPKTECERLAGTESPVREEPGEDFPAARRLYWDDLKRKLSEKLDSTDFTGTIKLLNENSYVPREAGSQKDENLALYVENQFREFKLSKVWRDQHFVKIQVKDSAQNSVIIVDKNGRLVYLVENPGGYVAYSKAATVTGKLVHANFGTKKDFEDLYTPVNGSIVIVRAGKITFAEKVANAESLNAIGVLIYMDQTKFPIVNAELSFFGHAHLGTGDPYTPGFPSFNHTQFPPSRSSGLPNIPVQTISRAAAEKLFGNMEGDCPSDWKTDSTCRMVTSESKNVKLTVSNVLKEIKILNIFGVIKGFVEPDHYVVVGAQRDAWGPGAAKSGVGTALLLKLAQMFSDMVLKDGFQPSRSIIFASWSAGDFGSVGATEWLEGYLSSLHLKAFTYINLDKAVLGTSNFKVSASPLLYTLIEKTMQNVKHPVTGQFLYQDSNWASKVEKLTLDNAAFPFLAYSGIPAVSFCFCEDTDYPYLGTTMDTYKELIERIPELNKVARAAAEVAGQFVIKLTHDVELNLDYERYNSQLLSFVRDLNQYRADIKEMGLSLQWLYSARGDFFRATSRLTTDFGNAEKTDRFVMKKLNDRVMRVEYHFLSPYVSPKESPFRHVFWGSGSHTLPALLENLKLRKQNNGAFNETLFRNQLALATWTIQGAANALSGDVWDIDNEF
Assay: phage ELISA

Which A450 does the source give for B22 here?
Its A450 is 0.051 A450.

For B23, which A450 is on record?
The A450 was 0.053 A450.

With B24 as the binder, how does the A450 read?
Its A450 is 0.052 A450.

Which A450 does the source give for B25 here?
Its A450 is 0.045 A450.

How did the A450 turn out when B26 was run?
The A450 was 0.049 A450.

For B27, which A450 is on record?
Its A450 is 0.05 A450.

— patent US20210395381A1 (OSSIANIX, published 2021)
